In article PMC3305377, “Insights into the structure and activity of prototype foamy virus RNase H” one finds Kd data, which are given here for one molecule.

The data set has as its target PFV PR-RT (protease-reverse transcriptase) (prototype foamy virus, UniProt P14350 1-751). Put plainly: fluorescence anisotropy; 10 mM EDTA, no Mg2+; 5 nM substrate; 50 mM Tris/HCl pH 8.0, 80 mM KCl, 10 mM EDTA, 0.5 mM DTT, 25 C. The note with it: protein: recombinant; label: 5'-DY647 on RNA; 24 bp hybrid; RNA template overhangs 5' 5 nt and 3' 11 nt. Background: Polarisation of emitted light reports the rotation of a fluorescent probe.

B1: 24/40-mer DNA/RNA primer/template (DNA:RNA)
RNA: CUAAUUCCGCUUUCCCCUCUCCUGGUGAUCCUUUCCAUCC
DNA: ATCACCAGGAGAGGGGAAAGCGGA
B1: the Kd came to 9.1 ± 1.7 nM.

Broadly, the Kd is the equilibrium constant for the complex coming apart.
